Experimental data as given in the supplement of paper PMC7125110.
± gives the standard error. Fewer inactive variants are shown than the library holds.

B1: glmS ribozyme (parent)
chain: AUAAAAGCGCCAGAACUACAGAAAUGUAGUUGACGAGGAGGAGGUUUAUCGAAUUUUCGGCGGAUGCCUCCAAA

Columns and labels:
Conditions in all cases: with glucosamine-6-phosphate
glucosamine-6-phosphate [1] = variants of: B1; test: self-cleavage kobs at 40 uM GlcN6P; higher = faster cleavage; RNA array
Method in brief: (§1)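 Glucosamine-6-phosphate in HEPES/KCl/Mg(OAc)2 buffer, at 40 μM to 10 mM, was flowed over barcoded ribozyme variants transcribed in situ by E. coli RNA polymerase on sequenced MiSeq chips. Tracking was through a hybridised Cy3 probe at 37 °C. kobs, kcat and KM came from exponential decay fits and weighted Michaelis–Menten fits of normalised per-tile medians.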

glucosamine-6-phosphate [2] = variants of: B1; test: self-cleavage kobs at 10000 uM GlcN6P; higher = faster cleavage; RNA array
Method in brief: as §1

glucosamine-6-phosphate [3] = variants of: B1; test: self-cleavage kobs at 160 uM GlcN6P; higher = faster cleavage; RNA array
Method in brief: as §1

glucosamine-6-phosphate [4] = variants of: B1; test: self-cleavage kobs at 640 uM GlcN6P; higher = faster cleavage; RNA array
Method in brief: as §1

glucosamine-6-phosphate [5] = variants of: B1; test: self-cleavage kobs at 2500 uM GlcN6P; higher = faster cleavage; RNA array
Method in brief: as §1

| Variant | self-cleavage kobs at 40 uM GlcN6P (glucosamine-6-phosphate [1]) | self-cleavage kobs at 10000 uM GlcN6P (glucosamine-6-phosphate [2]) | self-cleavage kobs at 160 uM GlcN6P (glucosamine-6-phosphate [3]) | self-cleavage kobs at 640 uM GlcN6P (glucosamine-6-phosphate [4]) | self-cleavage kobs at 2500 uM GlcN6P (glucosamine-6-phosphate [5]) |
| --- | --- | --- | --- | --- | --- |
| AUAAAAUCGGCAGAACUACAGAAAUGUAGUUGACGAGGAGGAGGUUUAUCGAAUUUUCGGCGGAUGCGUCCAAA [G7U C10G C68G] | 0.000171 ± 5.8e-05 s⁻¹ | 5.21e-05 ± 1.6e-05 s⁻¹ |  |  |  |
| AUAAAAGUGUCAGAACUACAGAAAUGUAGUUGACGAGGAGGAGGUUUAUAGAAUUUUCGGCGGAUGGCUCCAAA [C8U C10U C50A C67G] | 6.47e-05 ± 2.3e-05 s⁻¹ | 0.000228 ± 4.1e-05 s⁻¹ |  |  |  |
| AUAAAAGCGCCAGAACUACAGAAAUGUAGUAGACGAGGAGGAGCUUUAUCGAAUUUUCGGCGGAUGCCUCCAAA [U31A G44C] | < 1e-05 s⁻¹ | 6.05e-05 ± 1.8e-05 s⁻¹ |  |  |  |
| AUAAAAGGGCCAGAACUACAGAAAUGUAAUUGACGAGGAGGAGGUUUAUCGAAUUUUCGGCGGAUGCCUCCAAA [C8G G29A] | < 1e-05 s⁻¹ | < 1e-05 s⁻¹ | < 1e-05 s⁻¹ | < 1e-05 s⁻¹ | < 1e-05 s⁻¹ |
| AUAAAAGCGCCAGAACUACAGAAAUGUAGUUGACGAGGAGGGGGUUUAUCGAAUGUUCGGCGGAUGCCUCCAAA [A42G U55G] | 0.00175 ± 0.00035 s⁻¹ | 0.0243 ± 0.0042 s⁻¹ |  |  |  |
| AUAAAAGCGCCGGAACUACAGAAAUGUAGUUGACGAGGAGGAGGUUUAUCGAAUUUUCGGGGGAUGCCUCCAAA [A12G C61G] | < 1e-05 s⁻¹ | < 1e-05 s⁻¹ |  |  |  |
| AUAAAAGCCCCAGAACUACAGAAAUGUAUUUGACGAGGAGGAGGUUUAUCGAAUUUUCGGCGGAUGCCUCCAAA [G9C G29U] | < 1e-05 s⁻¹ | < 1e-05 s⁻¹ | < 1e-05 s⁻¹ | < 1e-05 s⁻¹ |  |
| AUAAAAGCGCCAGAACUACAGAAAUGUAGUUGAAGGGGCGGAGGUUUAUCGAAUUUUCGGCGGAUGCCUCCAAA [C34A A36G A39C] | < 1e-05 s⁻¹ | < 1e-05 s⁻¹ |  |  | < 1e-05 s⁻¹ |
| AUAAAAGCGCCAGAACUACAGAAAUGUAGUUGACGAGGAGGAGGUUGAUCGAAUUUUCGGCAGAUGCCUCCAAA [U47G G62A] | < 1e-05 s⁻¹ |  |  | < 1e-05 s⁻¹ |  |
| AUAAAAGCGCCAGAACUACAGAAAUGUAGUUGACGAGGAGGCGGUUUAUCGAAUUUUCGGAGGAUGCCUCCAAA [A42C C61A] | < 1e-05 s⁻¹ | < 1e-05 s⁻¹ | < 1e-05 s⁻¹ |  | < 1e-05 s⁻¹ |
| AUAAAAGCGCCAGAACUACAGAAAUGUAGUUGACUAGGAGGAGGUUUAUCGAAUUUUCGGCGGAUCUCUCCAAA [G35U G66C C67U] | < 1e-05 s⁻¹ |  |  |  |  |
| AUAAAAGCGCCAGCACUACAGAAAUGUAGUGGACGAGGUGGAGGUUUAUCGAAUUUUCGGCGGAUGCCUCCAAA [A14C U31G A39U] | 0.000119 ± 2.4e-05 s⁻¹ | 0.0112 ± 0.003 s⁻¹ |  | 0.0016 ± 0.00039 s⁻¹ |  |
| AUAAAAGCGCCAGAACUACAGAAAUGUAGUUGACGAGGAGUAGGUUUAUCGAAUUUUCGCCGGAUGCCUCCAAA [G41U G60C] | < 1e-05 s⁻¹ | < 1e-05 s⁻¹ | < 1e-05 s⁻¹ | < 1e-05 s⁻¹ | < 1e-05 s⁻¹ |
